What was measured:
[1] = biological target: T1, human IL-21R expressed on cells (human, UniProt Q9HBE5 20-538); test: cell-based or functional assay
[2] = biological target: T2, human IL-21R fusion protein (human, UniProt Q9HBE5 20-235, biotinylated in the assay of Example 11 (site not stated)); test: epitope competition assay: bio.hIL21R binding to immobilized MUF IgG (competitor), DELFIA
T2 construct: Soluble fusion protein (Wyeth); The extracellular domain is said to be about residues 20-235; also called soluble IL-21R fusion protein; biotinylated human IL-21R fusion protein
T2 sequence (Q9HBE5 20-235): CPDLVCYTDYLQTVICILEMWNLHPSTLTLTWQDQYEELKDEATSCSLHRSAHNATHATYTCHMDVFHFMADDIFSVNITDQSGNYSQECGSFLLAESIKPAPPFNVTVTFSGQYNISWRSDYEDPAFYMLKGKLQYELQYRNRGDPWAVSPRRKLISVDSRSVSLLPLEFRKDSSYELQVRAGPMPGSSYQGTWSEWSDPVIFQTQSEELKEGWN
Experimental: The scFv clones 18A5, 19F5 and 18G4 were further tested in an epitope competition assay in order to determine whether they bound the same or a different epitope than MUF. ScFv-containing periplasmic extracts were prepared as described above for the various clones. Final buffer used was 50 mM MOPS, pH 7.4, 0.5 mM EDTA, 0.5 M sorbitol. The scFv-containing crude periplasmic extracts were screened for the ability to inhibit the binding of biotinlyated human IL-21R fusion protein (bio.hIL21R) to MuF IgG protein immobilized on plastic in a 96 well microtitre plate assay. Binding of bio.hIL21R was detected with Europium-labelled streptavidin and TRF detected using the DELFIA reagent kit (PerkinElmer). Positive clones were used in an epiope competition assay described herein.

[3] = biological target: T1, human IL-21R expressed on cells; test: cell-based or functional assay; remark: listed apart in the source
[4] = biological target: T2, human IL-21R fusion protein; test: phage ELISA on coated IL-21R fusion protein
Experimental: To establish the specificity of the scFᵥ's for IL-21R, a phage ELISA was performed against the IL-21R fusion protein. Individual TG1 cell colonies from the second selection were transferred to microtiter wells containing 100 μl of -2TYAG medium. M13K07 helper phage ([…]) was added to the exponentially growing TG1 culture, and the samples were incubated for one hour at 37° C. Plates were centrifuged and supernatant was removed, then the remaining pellets were suspended in 100 μl of 2TYAG and incubated overnight at 30° C. with shaking. The next day, plates were centrifuged and phage supernatant was transferred to new microtiter plate wells. Phage was blocked in MPBS prior to ELISA.
Wells of microtiter plates were coated with IL-21R fusion protein or control fusion protein (0.5-2.5 μg/ml) and incubated overnight at 4° C. The next day, fusion protein solution was removed and wells were blocked for 1 hour in MPBS. Wells were washed with PBS, then 50 μl of blocked phage was added. Plates were incubated for 1 hour, then washed 3 times with PBST and 3 times with PBS. Anti-M13-HRP conjugate (Pharmacia, Peapack, N.J.) was added to wells, and the samples were incubated for one hour. Wells were washed 3 times with PBST and 3 times with PBS. […] The color signal was measured by reading absorbance at 450 nm using a microtiter plate reader.

[5] = biological target: T2, human IL-21R fusion protein; test: DELFIA competition: inhibition of human IL-21R fusion protein binding to captured IL-21-FLAG
Experimental: ScFv production was induced by addition of 1 mM IPTG to exponentially growing cultures and incubation overnight at 30° C. Crude scFv-containing periplasmic extracts (Griffiths et al.(1993) EMBO J., 12:725-734) were screened for the ability to inhibit the binding of human IL-21R fusion protein to human IL-21-FLAG tagged protein. Briefly, anti-FLAG antibody was immobilized onto plastic and used to capture FLAG-tagged human IL-21 protein. Binding of human IL-21R fusion protein was detected with a Europium-labelled antibody to the IL-21R fusion protein, and time resolved fluorescence was detected with the DELFIA reagent kit (PerkinElmer, Boston, Mass.).

T1 sequence (Q9HBE5 20-538): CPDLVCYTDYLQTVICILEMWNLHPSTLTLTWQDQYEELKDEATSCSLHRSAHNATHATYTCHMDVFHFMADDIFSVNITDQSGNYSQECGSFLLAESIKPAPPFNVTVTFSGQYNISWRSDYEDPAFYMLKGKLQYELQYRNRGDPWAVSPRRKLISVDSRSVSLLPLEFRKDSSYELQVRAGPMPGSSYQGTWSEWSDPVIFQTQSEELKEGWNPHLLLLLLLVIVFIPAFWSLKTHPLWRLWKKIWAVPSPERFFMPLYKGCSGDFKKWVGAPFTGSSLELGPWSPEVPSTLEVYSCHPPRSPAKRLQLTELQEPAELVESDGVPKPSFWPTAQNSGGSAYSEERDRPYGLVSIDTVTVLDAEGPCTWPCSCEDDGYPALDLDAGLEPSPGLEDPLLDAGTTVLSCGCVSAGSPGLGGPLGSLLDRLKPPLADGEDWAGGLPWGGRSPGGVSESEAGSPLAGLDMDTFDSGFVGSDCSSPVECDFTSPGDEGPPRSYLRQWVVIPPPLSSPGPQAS

B1: 19F5 scFv (scFv)
scFv: EVQLVQSGAEVKKPGASVKVSCKASGYAFTDNYIHWVRQAPGQGLEWMGWINPKTGGTNYAQKFQGRVSMTRDTSINTAYMDLSRLTSDDTAVYYCTRSLSPYGGQLLYWGRGTMVTVSSGGGGSGGGGSGGGGSALSSELTQDPAVSVALGQTVRITCQGDSLRRYYASWFQQKPGQAPVLVIFGKNNRPSGIPDRFSASSSGNTASLTITGAQAEDEADYYCNSRDTSINHPVIFGGGTKLTVLG
In the case of B1, the “IC50 Value (nM) ScFv, hBaf3Mu-1 cell proliferation assay” value (shortened to “IC50 Value (nM) ScFv”) [1] is reported as 91 nM.

B2: MUF antibody (human IgG1 lambda) (antibody, V domains shown)
VH: QVQLVQSGAEVKKPGSSVRVSCKASGGTFNIYSVSWVRQAPGQGLEWMGRIIPMRDIANYAQRFQGRVTLTADKSSGTAYMELRGLRSDDTAVYWCATLAGPLDSWGQGTLVTVSS
VL: SSELTQDPAVSVGLGQTVTITCQGGSLRQYYASWYQQKPGQAPVVVIYGKNKRPSGIPDRFSGTTSGNTASLTITGAQAEDEADYYCKSRDSSGNHPLYVFGAGTKLTVLG
notes: also called MUF IgG; MuF IgG protein
B2 was tested, and the IC50 [2] was 0.4 nM and the “IC50, inhibition of cell response to IL-21 (hBaf3Mu-1 proliferation)” value [3] was 3 nM.

B3: 18G4 scFv (scFv)
scFv: EVQLVQSGAEVKKPGSSVKVSCKASGGTFNIYSVSWVRQAPGQGLEWMGRIIPMRDIANYAQRFQGRVTLTADKSSGTAYMELRSLRSDDTAVYWCATLAGPLDSWGRGTLVTVSSGGGGSGGGGSGGGGSALSSELTQDPAVSVALGQTVRITCQGDSLRTYYASWYQKRPGQAPILVMYGRNKRPSGIPDRFSGSFSGNRASLTITGAQAEDEADYYCKSRAYSGNLVEFGGGTKLTVLG
For B3, the “IC50 Value (nM) ScFv” value [1] was 522 nM and the IC50 [2] was 1.4 nM.

B4: MUF scFv (scFv)
scFv: QVQLVQSGAEVKKPGSSVRVSCKASGGTFNIYSVSWVRQAPGQGLEWMGRIIPMRDIANYAQRFQGRVTLTADKSSGTAYMELRGLRSDDTAVYWCATLAGPLDSWGQGTLVTVSSGGGGSGGGGSGGGGSALSSELTQDPAVSVGLGQTVTITCQGGSLRQYYASWYQQKPGQAPVVVIYGKNKRPSGIPDRFSGTTSGNTASLTITGAQAEDEADYYCKSRDSSGNHPLYVFGAGTKLTVLGAAAHHHHHH
For B4, the “IC50 Value (nM) ScFv” value [1] was 140 nM and the “IC50, inhibition of cell response to IL-21 (hBaf3Mu-1 proliferation)” value [3] was 268 nM.

B5: 18A5 scFv (scFv)
scFv: QVQLQESGPGLVKTSETLSLTCAVSGYSISSGYYWGWIRQPPGKGLEWIGSISHTGNTYYNPPLKSRVTISVDTSKNQFSLKLSSVTAADTAVYYCARGGGISRPEYWGKGTLVTVSSGGGGSGGGGSGGGGSALSSELTQDPPVSVALGQTVTLTCQGDSLRTYYASWYQQKSGQAPILLLYGKHKRPSGIPDRFSGSTSGDTASLTITGAQAEDEADYYCNSRDSSGNPHVLFGGGTQLTVLS
For B5, the “IC50 Value (nM) ScFv” value [1] was 213 nM and the IC50 [2] was 114 nM.

B6: MU11 phage clone (scFv)
scFv: EVQLVQSGGGVVQPGRSLRLSCAASGFTFSSYGMHWVRQAPGKGLEWVAVISYDGSNKYYADSVKGRFTISRDNSKNTLYLQMNSLRDEDTAVYYCARHGQYALDIWGQGTMVTVSSGGGGSGGGGSGGGGSDIVMTQSPSTLSASVGDRVTITCRASQGISSWLAWYQQKPGRAPKVLIYKASTLESGVPSRFSGSGSGTDFTLTISSLQPEDFATYYCQQSYSTPWTFGQGTKLEIKRAA
B6: binds [4].

B7: R18 scFv (scFv)
scFv: QVQLQESGGGLVQPGGSLRLSCAASGFTFSSYAMSWVRQAPGKGLEWVSGISGSGTSTYYADSVKGRFTISRDNSKNTLYLQMNSLRAEDTAVYYCATHISERPRGAFDIWGRGTMVTVSSGGGGSGGGGSGGGGSALSSELTQDPAVSVALGQTVRITCQGDSLRKYHATWYQQKPRQAPVLVVYGKNRRPSGIPDRFSGSSSGNTASLTITGAQAGDEADYYCNSRDTSGLHYVFGAGTKLTVLG
notes: also called hIL21R18; scFv R18 clone
B7 was tested, and the “IC50 Value (nM) ScFv” value [1] was 473 nM and the IC50 [5] was 770 nM.

From US20040265960A1 (Pfizer, published 2004)
